Experimental data from patent publication CN111393529A (KANGYUAN BOCHUANG BIO TECH BEIJING CO LTD, dated 2020).

T1: OX40蛋白胞外区与小鼠IgG2a-FC的融合蛋白 (human; mouse, UniProt P43489 29-214)
T1 construct: also called 抗原OX40小鼠IgG2a Fc标签蛋白; 实施例1中的融合蛋白; not shown: Mouse IgG2a Fc, from Genbank AAH31470.1
T1 sequence: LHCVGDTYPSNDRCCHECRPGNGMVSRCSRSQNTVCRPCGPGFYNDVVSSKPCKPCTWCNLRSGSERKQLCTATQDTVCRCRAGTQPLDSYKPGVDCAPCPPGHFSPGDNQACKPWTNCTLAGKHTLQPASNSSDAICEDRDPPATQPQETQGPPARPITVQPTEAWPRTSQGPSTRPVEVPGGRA

B1: 抗体I3E3 (antibody, V domains shown)
VH: EVKLVESGGGLVQPGGSLRLSCATSGFTFSDFYMGWVRQPPGKRLEWIAASRNKAYDYTTAYSASVKGRFIVSRDTSQSILYLQMNALRAEDTAIYYCARDDGYYPMDYWGQGTSVTVSS
VL: DIQLTQSPASLAVSLGQRATISCRASKSVSTSGYSYMHWYQQKPGQPPKLLIYLASNLESGVPARFSGSGSGTDFTLNIHPVEEEDAATYYCQHSRELPLTFGAGTKLELKR
B2: 抗体H1E6 (antibody, V domains shown)
VH: EVKLVESGAELVKPGTSVRLSCKASGYTFTSYDINWVRQRPEQGLEWIGWIFPGDGSTKYNEKFKGKATLTTDKSSSTVYMQLSRLTSEDSAVYFCARWDGYYEGDYFDNWGQGTTLTVSS
VL: DIVMTQSPSSLSASLGGKVTITCKASQDINKYIAWYQHKPGKGPRLLIHYTSTLQPGIPSRFSGSGSGRDYSFNISNLEPEDIATYYCLQYVNLYTFGGGTKLEIKR
B3: 抗体H1K1 (antibody, V domains shown)
VH: EVQLQQPGSVLVRPGTSVKLSCKASGYTFTSSWIHWARQRPGQGLEWIGDIHPNSGNTNYNEKFKGKATLTVDTSSSTAYVDLSSLTSEDSAVYYCVRSYGNYKDYYGMDYWGQGTSVTVSS
VL: DILMTQSPASLAVSLGQRATISCKASQSVDYDGDSYMNWYQQKPGQPPKLLIYAASNLESGIPARFSGSGSGTDFTLNIHPVEEEDAATYYCQQSNEDPYTFGGGTKLEIKR

Biological target: T1, OX40蛋白胞外区与小鼠IgG2a-FC的融合蛋白
Assay: SPR, Biacore T200, antibody captured on CM5 chip, OX40-mouse IgG2a Fc as analyte

| Kd | Binder |
| --- | --- |
| 4.4 nM | B1 |
| 5.1 nM | B2 |
| 11 nM | B3 |
